From the DeepSol protein solubility set

Assay: soluble on expression in E. coli; label from the status in PepcDB or PDB records
For “MGHHHHHHSHMEKSAPSIILNHWCVTWQGHHFLCRNLSNIKILNRRNGYTTLDLPLTLGDLTQYRLAHGLSENLMALSPYSWTIPFLVSSSETPGIELLPKVINDFGTPLSLAIKTNLPSIPAHQLLFYIIFLRPSPLTSMSCYARPLSLASTPSTNGLCQSVSVLDNKPGLLITTPLHRDPASGKYTSNVQSPTTFNLFRVLYIKLSGEEGMVSQKVKHLTIDKDSLQEGFLQLCLNMCGVSYETLQCEILLELVQGPTNFIFPAAFPPPVSLPHRNCIELTCDTERCLKPGDVMKLKHRLLYELGQRGDTPQNAFLIVGAHSPETVWISPSLWLPGQPLYINIINLSHKPLLLSRHSILALAIPISYTRAPASAHEATDTTICYSGNSRVLTCGAAHVLEAHFKHPPITSRAITDGGESPMEWQTL”, the “soluble on expression in E. coli” value was “not soluble”. In the case of “SLISYCSDSGDENISCTKKMVVTVTVEGEQLPGEESLLFLNSATDMTVNNGTSVQFSPLRITTSRSAVRYRYPLFYVQNYNAKPYEATVKGSLLNQCNADFNADTATCGLAYDAAGKAIPYSQGFCCDCSMCQTLGLCQPDARANAACNVFGKYTTASCLRFAQRWYSGYTIGGYMTWYTVNLTLSRNVSDSGGAGAAEKVVMRLSPSNNGEVAGEGWDVMARIVGTYAPVDQPLDLTSRMLFAPAIPPNDARVQAGAAEWLLLPTNLVTLDGRECDKVGVSYEAFASQGNKCNLRPGSCLSSQLEDYRTADLQRIAAGNKGQYMATSFGDFNLENDAATSPYISYLAASPAATMISITVSADDLEYTVGLASGKIISTDMNKPTLQAGTADGVMTVMVRNTAAVTGRLVVGTLNCSDGVF”, the “soluble on expression in E. coli” value is reported as “not soluble”. For “MSLDKAPERVVSVGYTDDQTVLAFGIKPVGMVDQYPNPAGQSPDINTQWPWVKDKWGDTKPEVVMKNGDTGPNFEKIAALRPDLIVAVYSEIDQAAYDKLSKIAPTVGRTKGEKEPFSAPWQDNALHIAKALGKAEEGEKMVADIQGKLDAAKQAHPEFADKTAVVLSWYKDSVAPFTSTDVRGRLVTGIGFKYETEIDKVAGGDFYTTLSPERVDLVDVDRVFVINDKADQDALKKFELFTNLDAVKNGKVSYLLDSEGPAVGAAISQGTLLSMPYAVDELVKSAGEGHHHHHH”, the “soluble on expression in E. coli” value was “soluble”. In the case of “MRPILLPDPPSLSTGVPDIFEQGGSHNVVRRAVVIGNGFPGSENQCIGLVRALGLSDNHLLYVFSLLGLSLSRSGNFILFSTSLECMNVQRRRNYLNFYGNNELRIESLVEHDAGAITEFRLQGTLRVTRPKGGLNEWLHWLPVGFHKKLDFILRHIYLYSRLMLGSKQSKYISSVPSENGGNVGLASILEADVKGIVNLARQTYEKDGPLIVIACGRDTISIASSIRRLASENVFVVQIQHPRSHLNRFDMVITPRHDYYPLTLEAQEQVPRFMRSWITPREPPQDHVVLTTGALHQIDYASLRKAASAWHDEFAALPKPLVVVNIGWPRSNCRYGADLAKQLTDSLLNVLATCGSVRITLSYKTPAKVSRVIFKELGDNPKVYIWNGQEPNPYMGHLAWGDAFVVTADSVSLISEACSTGKPVYVVGADHCKWKIAEFQKSLRERGVVRSFTGFEDMSESWSYPPLNDTAEAATRIRRELAARGWSLRS”, the “soluble on expression in E. coli” value is reported as “soluble”. In the case of “GMDISLLKQVVQSTNKIALSTAVNNEADVKIVNFVWYEAQPDTLYFSSVKTSPALKVYDQNPDIAFITIPNDGTAGNPYLRAQHVKLQRSTKTMTDLLPQYLETVPNYQQVWDAIGSTLVVFELKLTDLFVDAGVGGEKQTLTFN”, the “soluble on expression in E. coli” value is reported as “soluble”. In the case of “IDAPSFRDKRQADKLFEKDTMDWKVSINDKSIDYSQYKMPGKKGAFPYSNLDEQLAEYNELNGVYFSNGKRVELSELQATGTAKETHRVNSPLTKAKIAYLEMTDEERQLFMKWVSQQ”, the “soluble on expression in E. coli” value is reported as “not soluble”. For “MGSDKIHHHHHHMINKYKVSENRLSIMEIERFAVHDGPGIRTVVFLQGCPLHCSWCSNPESQKRKPHLLHIKNKCIGCGRCEAICPRGNISIQDHFPVFNRQACVACKACERICPQNAIKFVGESITSSEIMEILLRDRDYYLNSGGGVTFSGGEAFTQFEGLMDLLIQCKNEKLHTSVETCGQVNLDKIKQALPLIDLFLFDIKHTDKDLLQKETGANLDTILTNLRYISSKSANKVTIRVPVIPGFNFNENTLREIFMLAKENRIKCVHLLPYHTLGKDKYEQLGLTYPYSCEQMLAKEELFPFKEMGEKMGLEIRIGG”, the “soluble on expression in E. coli” value was “not soluble”. For “MAHHHHHHMQKIQNAVRRRSRFFKWDVKWYSSKVKVEKKAGERHNDRHDSHDSHDSHKDIPQDSRPDTRVGQERKYNLWRWGCSGEGIFSSVKVGEKNKMPEKVPNFENAKIEKLSAGCDHAAFIVDGRIFTYGLNDKGQLGRSIEEENDQNKSYTLTPREVKTEGNVKFKDVCCGYKHTVAVDVNNNLYSWGWGGNFFKGANGLGHGNKQNLSTPKKVESFKSDDSEFVNICCGDQHSLVLTKNGKVYGCGRGEFGRLGKGNHGDQLFFEEIDFFISNNITVKGISCGHSFSAALSTDGEVYVWGRNDYGQLGIENSIGDLYSHEVYPNKVKYFDMENIKIKFIACGDNHMIACSENNVIFFWGSRAWLEPKAITLSPLYQNSVIKKNIDKIEAGGNTYYYSMLLSDNKLYSWGKYNSSCLALGDKKNHNEPTLVDSKLFNDEIVCDISCGRGRVLAKTLAAD”, the “soluble on expression in E. coli” value was “not soluble”. With “MGKSDFLSPKAIANRIKSKGLQKLRWYCQMCQKQCRDENGFKCHCMSESHQRQLLLASENPQQFMDYFSEEFRNDFLELLRRRFGTKRVHNNIVYNEYISHREHIHMNATQWETLTDFTKWLGREGLCKVDETPKGWYIQYIDRDPETIRRQLELEKKKKQDLDDEEKTAKFIEEQVRRGLEGKEQETPVFTELS” the “soluble on expression in E. coli” value was “soluble”. For “MVTQNKKILIITGSFGNGHMQVTQSIVNQLNEMNLNHLSVIQHDLFMEAHPIMTSICKKWYINSFKYFRNTYKRFYYSRPNELDKCFYKYYGLNKLINLLIKEKPDLILLTFPTPVMSVLTEQFNINIPIATVMTDYRMHKNWITPYSQRYYVATKDTKDDFIEAGVPASYIKVTGIPIADKFEESIDKEEWLSQQHLDPSKPTILMSAGAFGVSKGFDYMINNILEKSPNSQVVMICGRSKELKRSLKAKFKDNPSVKILGYTNHMNEWMASSQLMITKPGGITISEGLSRCIPMIFLNPAPGQELENAYYFESKGFGKIADTPNEAIDIVSDLTNNEETLKVMSSKMLESKVGYSTRKICKDLLDLIGHSSQPDEIYGKVPLYARFFVKLEHHHHHH”, the “soluble on expression in E. coli” value was “soluble”. For “MGSDKIHHHHHHMVIGQKVLLARIPKMGDNYSTYLLDIEGTVCPISFVKETLFPYFTNKVPQLVQQDTRDSPVSNILSQFHIDNKEQLQAHILELVAKDVKDPILKQLQGYVWAHGYESGQIKAPVYADAIDFIKRKKRVFIYSSGSVKAQKLLFGYVQDPNAPAHDSLDLNSYIDGYFDINTSGKKTETQSYANILRDIGAKASEVLFLSDNPLELDAAAGVGIATGLASRPGNAPVPDGQKYQVYKNFETL”, the “soluble on expression in E. coli” value was “soluble”. With “EEDWVLPSEVEVLESIYLDELQVIKGNGRTSPWEIYITLHPATAEDQDSQYVCFTLVLQVPAEYPHEVPQISIRNPRGLSDEQIHTILQVLGHVAKAGLGTAMLYELIEKGKEILTDNNIPHGQ” the “soluble on expression in E. coli” value was “soluble”. In the case of “MVHYKLTYFNGRGAGECARQVFALADQKYEDVRLTQETFVPLKATFPFGQVPVLEVDGQQLAQSQAICRYLAKTFGFAGATPFESALIDSLADAYTDYRAEMKTYYYTALGFMTGDVDKPKTDVLLPARTKFLGFITKFLKKNSSGFLVGDKISWVDLLVAEHVADMTNRVPEYIEGFPEVKAHMERIQQTPRIKKWIETRPETPF”, the “soluble on expression in E. coli” value is reported as “soluble”. With “GPGSMAASQLIATRFTDLLAEGNIESALKYIANDVVYNTWLGVVYGKDNVEVFLRDNVRFVHHGRNYNRWKQVQHSLDASLKQFTVNDVSGYDESALDVRSYYDSEGYDSQGYATFERDGTIASHAKFAVFHVKVKETVVLRNNKVVLVNVSKRA” the “soluble on expression in E. coli” value was “not soluble”. In the case of “MGSSHHHHHHSSGRENLYFQGVLGAGCIGGSIALKLKEKHHVTAFDRDEETMKALEENGIETVSKESDLYDTDLLVLALPMSVEERFLKETDFSGKILDVASVKTPFMEIARERGLNFTGGHPMAGNERKGKSGWDREMFDGKIFFLCSLDGKEDGMIENIVKDLGARPLWIDYRIHDEIVAAVSHVQYLISLSARYVGKPFEEYAGPGYLSNTRLSKQNMEMALDMIRYNKENILKYLENARNFLNVLYHLTEKEDFENLKKVIREVI”, the “soluble on expression in E. coli” value is reported as “soluble”. For “MTENAEKFLWGVATSAYQIEGATQEDGRGPSIWDAFAQRPGAIRDGSTGEPACDHYRRYEEDIALMQSLGVRAYRFSVAWPRILPEGRGRINPKGLAFYDRLVDRLLASGITPFLTLYHWDLPLALEERGGWRSRETAFAFAEYAEAVARALADRVPFFATLNEPWCSAFLGHWTGEHAPGLRNLEAALRAAHHLLLGHGLAVEALRAAGARRVGIVLNFAPAYGEDPEAVDVADRYHNRFFLDPILGKGYPESPFRDPPPVPILSRDLELVARPLDFLGVNYYAPVRVAPGTGTLPVRYLPPEGPATAMGWEVYPEGLYHLLKRLGREVPWPLYVTENGAAYPDLWTGEAVVEDPERVAYLEAHVEAALRAREEGVDLRGYFVWSLMDNFEWAFGYTRRFGLYYVDFPSQRRIPKRSALWYRERIARAQT”, the “soluble on expression in E. coli” value was “soluble”. For “MTETTYENLTRRIDRISAEMREISEENGLRILSLLESQTKSIKDELSRLLWIELPELNESHKIEAVSKSTTGMFFAPGIFEMDAMRKAFFKRQAKHFFENEAEQQAYIEHAEKEYLEATVTLKDILFNSKNGTQKANKSCLIEKFEEAMQ”, the “soluble on expression in E. coli” value was “not soluble”. With “MAHHHHHHMKDGDWERRNRLKVYEGIYHVFIRDFKRGSELLLDSISTFASSELMDFNEFILITVVASLPVLSRSELKQQILDSPEVRSANIKDVFHLITVIYNCRYKEVFSALDTVCQHLRGIVYLSQHVNYFFREVRVLVFTQFLDSYSSVTLNSMSAAFGIPPPVLDSMLGTLISNERIACKMDRVSDSITTYRGDTTNFDYHRIVKNGDLLLNRIQKLSRLAEM” the “soluble on expression in E. coli” value was “not soluble”. With “MYVCLCHAITDTQIKNAVSQGDTSLADVKKRLGVADQCGKCARMAVQIIQNQLEIEPKYYEVA” the “soluble on expression in E. coli” value was “soluble”. In the case of “HNITRPIRSMSSTCREINKNKGNYRSYRFESVKRKDEIGQLAVTFESLLRNMDNYTKMEYTSKMSATLAHEIKNPIAGIRSGIQLLKGRAAKESDKMLCESMIKEVDRVTTLIMNLFTLSVKKESPKELISFEKVIGEIAMIYSKGAEGQGVVMETAVEEGLTGYLNENEFRQIAHNLISNSIKSVIPGIEGRIRISGRESGNKALIEFQDNGKGMSREELTRAMEPFYTKSINGIGIGLAIVKKLVEQNGGLMEMASACGEGTCVRLTFYRRVEDYEENISRG”, the “soluble on expression in E. coli” value is reported as “not soluble”. With “MKEKIPFYNEKEFHDMVKKTKKGTFSGWYIINKNNNSVEFSGSFNRQFKLNKPVIPVNTEYVTRKEFNEYKDSNDQRLTKIETELKSQGQRIQVVEDKVDRLTEVVMVQSQQIKTQGEAMNARMDRFESLVLKSLESIGNTLTDFGKRLDVIETRLDKIDPPKLEHHHHHH” the “soluble on expression in E. coli” value was “not soluble”. For “MSLKRNNVNVVNRTKNSNPEFRIPLHYKHKIPFVLSDAIERNHDQDLTAEVHFYLALPPERCRRIYKSRRKALNAMLRAILYHVNVISKQVPISATMLTEYCGLTTISAAGNKSVTRGTRTLAMLRDLGFITYRQCWDRVSRRYFPSAIAVTERLIDLVGICPERWRTELNNKLANYNHKIFKKEGITLNEYDYARNLREDQLKRSYMYHSNRKEIKKKKKEATRLEKLVKIKGENELRHLISRQVSEEFLKGFIPGAQLKDLKKIVDKRINTLKKIAKSLHEGHHHHHH”, the “soluble on expression in E. coli” value was “not soluble”.
